Measurements: patent US20080219999A1

Molecular target: Rhinovirus serotype HRV-39 (human rhinovirus 39)
Assay: cell-based or functional assay

Row | Substance | IC50, cytopathic effect (CPE) assay on HeLa S3 cells | fold lower IC50 than soluble ICAM-1, CPE assay on HeLa S3 cells
1 | soluble human ICAM-1 (from UniProt P05362 28-480) | 1.35 µg/mL | –
2 | IC1-5D/IgA (ICAM/IgA fusion, gift of Dr. Tim Springer; Martin, et al., 1993) (from UniProt P05362 28-480; P01876 103-353) (Fc fusion) | 0.12 µg/mL | 11.3 fold
